± gives the standard deviation.
Assay: protein stability index of a GFP-peptide fusion (GPS, HEK-293T) (PSI 1-6); higher = more stable
Settings: c terminus: a fixed tail appended
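Further: 24-mer peptide tiles fused after GFP, lentivirally expressed, FACS-sorted into six equal bins by GFP/DsRed ratio, decoded by Illumina sequencing, PSI is the read-weighted mean bin number.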

Sequence	protein stability index (treatment: DMSO)	protein stability index (treatment: MLN4924 1 uM, 8 h)
RGTGQLNRFVQLSGRPHLPGKKKI [KLHDC10]	2.99 ± 0.2	3.03 ± 0.26
FVIGHLKGAPASWWNHMHFQHHAK [FADS1]	2.65 ± 0.89	2.24 ± 0.47
NRRSSRETREYAPPSRGHGYRDYG [RBMY1A1]	4.27 ± 0.24	4.09 ± 0.23
ARGRHVGSSETNLLQHLLEACGRC [PYCR3]	2.71 ± 0.88	3.17 ± 1.4
VSCLGLGTWVTFGGQITDEMAEQL [KCNAB2]	2.32 ± 0.27	2.51 ± 0.3
EKFVFFIGSKNGGKTTIILRCLDR [DYNC2LI1]	3.27 ± 0.27	2.53 ± 0.22
TPRSPEGTTEAATQDGKEQPELPC [PXN]	5.38 ± 0.22	5.36 ± 0.23
KALFTCPFNGDCRITKDNRRHCQA [VDR]	2.84 ± 0.31	3.21 ± 0.42
FLCVLMSDWFNFHGHMCIAFELLG [CLK3]	3.2 ± 0.3	3.11 ± 0.42
LEQTAREILTLLQGVHQGAGFQDI [TSN]	3.07 ± 0.32	2.81 ± 0.38
TANTFRVMFKEPIEILPNVCYTAC [BTBD1]	2.46 ± 0.44	2.18 ± 0.3
IQLGVTPPGYSAWIKEEAAERYLY [SLC6A17]	2.31 ± 0.25	2.36 ± 0.15
MGCTLSAEDKAAVERSKMIDRNLR [GNAI1]	4.64 ± 0.32	4.54 ± 0.1
SACSFTNSDMQILTASGDGTCALW [GNB5]	2.33 ± 0.27	2.15 ± 0.22
LPKISDPNFVKDLEEDLYELFKKD [PI4K2A]	3.72 ± 0.24	3.88 ± 0.31
MEVAMVSAESSGCNSHMPYGYAAQ [KCNA4]	2.95 ± 0.15	3.32 ± 0.5
QARRQQVKQYLSTTLGPKLASQAL [TFE3]	2.95 ± 0.51	2.9 ± 0.23
VKETGYFFIYGQVLYTDKTYAMGH [TNFSF13B]	2.86 ± 1.5	2.41 ± 0.86
SSTLNPSTSSSTQGDPAFPEMNGN [NOL4L]	5.44 ± 0.25	5.44 ± 0.2
GSKLEKGHLRGPEIRDWRGPQLEG [ZSWIM9]	3.87 ± 0.35	3.85 ± 0.2
IPPAAMLDQAPKARKYFERLPGGG [DYRK1B]	3.72 ± 0.27	3.64 ± 0.061
PSSFDPSMLLQRFSVAPHETQTQR [RNF180]	4.12 ± 0.14	3.95 ± 0.13
KQLEFGLKEAPVQDQGYKTLRLRE [ZNF8]	4.3 ± 0.31	4.27 ± 0.22

Sequence	protein stability index (treatment: DMSO)	protein stability index (treatment: MLN4924 1 uM, 8 h)
VVVSVAGAFRKGKSFILDFMLRYL [ATL3]	2.55 ± 0.3	2.68 ± 0.34
SGRRGPPPPPRSRGPPRGLRGGRG [RBMX]	4.87 ± 0.25	5.14 ± 0.3
VKELRPQLMTSQFISVFSNLLESK [ZER1]	2.38 ± 0.24	2.61 ± 0.44
YKREILERVDGRRLVYKFGKNSSG [ELF3]	3.1 ± 0.22	3.21 ± 0.44
TRIFTEDRFAQDSEMKKCSDYESI [PPEF2]	4.42 ± 0.098	4.25 ± 0.18
MSALGSPVRAYDFLLKFLLVGDSD [RAB40B]	2.42 ± 0.38	2.13 ± 0.32
DTTRQVQRISCFQSTVKCLTVLQR [WDR41]	2.42 ± 0.33	2.63 ± 0.35
IIIRSEVPGIFCAGADLKERAKMS [AUH]	2.36 ± 0.43	1.95 ± 0.21
SSMKKFCRPLLPSCTTRLCQEEQL [PSD2]	2.88 ± 0.29	2.98 ± 0.15
WTLKLDGNLQLDCLAQGWKQYQQR [RTP4]	2.2 ± 0.26	2.55 ± 0.26
FWYREALDISDSISESGGLNWKMT [SLC6A17]	2.17 ± 0.34	1.92 ± 0.32
SLHKGAKRKGIKSSIGRLFGKKEK [PPFIA4]	3.6 ± 0.46	3.73 ± 0.18
EFIRDILIHPELNEGLMKWENRHE [ELF3]	2 ± 0.27	2.3 ± 0.48
AGRPRAERRPRRVEAERPHSLIGV [FAM189A2]	4.05 ± 0.15	3.94 ± 0.21
SMKGSCGIGGGIGGGSSRISSVLA [KRT16]	2.54 ± 0.42	2.64 ± 0.33
SSFFFSGVFVGVISFGQLSDRFGR [SLC22A15]	2.96 ± 0.94	3.021 ± 0.018
EEDKDEKSSIYESDFQIEPGFYAT [MIA2]	4.61 ± 0.062	4.46 ± 0.4
ICKSDAPTGDVLLDEALKHVKETQ [GOLPH3]	4.64 ± 0.3	4.72 ± 0.16
AANVVSAKRNRLAPAHVDEQVFLY [ZBED1]	2.55 ± 0.12	2.47 ± 0.27
ENKQVVIIHHMRLQAKALQLIVTA [INTS4]	3.01 ± 0.56	3.03 ± 0.44
SLIFSLKNEVGGLIKALKIFQEKH [TPH1]	2.07 ± 0.23	2.75 ± 0.82
ETREYAPPSRGHGYRDYGHSRRHE [RBMY1A1]	4.58 ± 0.35	4.71 ± 0.13
EEFISNTLFKKIQALQKEKETLAV [CCDC6]	3.27 ± 0.33	3.39 ± 0.33

Sequence	protein stability index (treatment: DMSO)	protein stability index (treatment: MLN4924 1 uM, 8 h)
FALIAVVFLASGAVSVMKKCRKLE [SLC19A2]	3.18 ± 0.35	3 ± 0.29
WDERGRAAAYSPSEALLYALVHDH [ANKRD9]	3.02 ± 0.37	2.95 ± 0.27
DEMLSYLPGGTTGLQLPSTLPVSG [TFE3]	3.95 ± 0.26	4.15 ± 0.21
FSHDLTLERKCEKRSVYIDARDEE [ZC3H15]	4.47 ± 0.24	4.64 ± 0.34
VTTEQLGAKMTERGSVARPTQGPE [PXN]	5.35 ± 0.17	5.14 ± 0.38
TRGIAKIISAHIHPVCSLCWSRDG [RBBP5]	2.45 ± 0.44	2.04 ± 0.19
RRWKLQVLDLRKNSHQDFWTVWSG [PRAME]	2.46 ± 0.73	2.07 ± 0.44
NTVKVQVLYPDGQAQMIHPKPADF [INTS4]	3.05 ± 0.48	3.08 ± 0.27
ETQLKACASFIRTRLLLQFTQPQQ [C8orf76]	2.93 ± 0.65	2.86 ± 0.88
PVDSVLFYAITTLHNLLLHQEGAK [CTNNB1]	2.81 ± 0.48	2.71 ± 0.17
PCYDVRYAPSCAKCKKKITGEIMH [PDLIM7]	3.04 ± 0.39	2.97 ± 0.38
YGHPAGIDYKTTTILLDGRRVKLQ [RAB40B]	2.87 ± 0.28	3.14 ± 0.11
LGKESFYDTFHTVADMMYFCQMLA [HACD3]	2.56 ± 0.92	3.15 ± 0.99
SHPRVQSGCDKEALLTGGGSENRN [RNF180]	4.77 ± 0.31	4.65 ± 0.24
DEVIDVMQENITKVIERGERLDEL [VAMP4]	4.77 ± 0.32	4.88 ± 0.28
LLHVSSPNLASDSDLSRRSSSTMS [KCNA1]	4.26 ± 0.069	4.37 ± 0.055
ELRTAKDSDDDDDVAVTVDRDRFM [STX1A]	5.37 ± 0.06	5.25 ± 0.14
LLRLSKHGPGHETPMTIPEFFRES [ACSBG2]	2.73 ± 0.1	3.06 ± 0.25
GSSASTSPAPLDTCPSSSTASSIS [DYRK1B]	5.22 ± 0.12	5.3 ± 0.078
YRIRQVNIYYYLEDDSMSVIEPVV [EFHC1]	2.87 ± 0.31	2.55 ± 0.55
AYDYAKEVNSAEELEGLIADPDEM [FEM1C]	5.68 ± 0.13	5.51 ± 0.56
YYVLEPRVVDGTPCSPDSSSVCVQ [ADAMTS4]	3.33 ± 0.35	3.21 ± 0.28
YQLFEELGKGAFSVVRRCVKVLAG [CAMK2A]	2.9 ± 0.64	2.64 ± 0.39

Sequence	protein stability index (treatment: DMSO)	protein stability index (treatment: MLN4924 1 uM, 8 h)
PMKKNNNLYSWDDFMELGRSIPDT [ACSBG2]	3.74 ± 0.24	3.77 ± 0.3
EQSSCTMTPDIHELVENIKSVLKS [FAM189A2]	2.19 ± 0.29	2.4 ± 0.37
DAMLKEASGPINFTMFLNLFGEKL [MYL5]	2.23 ± 0.55	2.27 ± 0.28
QLVLAYDYSREVNTTEELEALITD [FEM1A]	3.53 ± 0.28	3.8 ± 0.34
RSVIEVPAVPEEILKRLLKEQHLW [DLC1]	2.48 ± 0.36	2.69 ± 0.37
FGGQNAHNQIAIYAHQPRTADEIP [FUT8]	3.43 ± 0.23	3.65 ± 0.33
WSGEVKDKNVQVVELPIVDSLHPR [FUT8]	4.17 ± 0.17	4.29 ± 0.15
QVRIRYLGERRAEPHSLLHLSRLC [SPSB2]	2.34 ± 0.2	2.22 ± 0.22
KLEWAIDEDELRKSLSELVDDKFG [PSD2]	4.19 ± 0.086	4.09 ± 0.26
TFVNVYIASFIRGPNPSKLIQQFL [CDS2]	2.4 ± 0.65	2.73 ± 0.6
DDLTSVTNHGYRVQVENPERFSSA [TRIM35]	4.44 ± 0.24	4.588 ± 0.031
WLEDEPGRGAQGENERVRGLETGD [ZSWIM9]	5.49 ± 0.32	5.48 ± 0.18
RVLKAYTLYRPEEGYCQAQAPIAA [TBC1D10A]	2.08 ± 0.29	2.16 ± 0.21
VARTHLTEDTPKVNADIEKVNQNQ [NSDHL]	5.08 ± 0.22	5.06 ± 0.11
VKVIMDALDERAKVLHEDKQTREQ [TRIM29]	3.84 ± 0.098	3.84 ± 0.39
HHPENGEETVTMLEDVERELDGPK [ZNF396]	5.51 ± 0.13	5.49 ± 0.15
GEQEFEALMRMLDNLGYRTGYPYR [ADD1]	2.15 ± 0.3	2.26 ± 0.49
PADFSLGSLPGPGQTSGAREPPQA [VENTX]	5.12 ± 0.2	5.16 ± 0.24
LAAVAWVGQQVHNLLLTYLIVTSL [ARL6IP1]	3.32 ± 0.44	3.3 ± 0.53
EHPNLVRDHVETELLKEAELIRNI [TEKT4]	4.6 ± 0.12	4.56 ± 0.21
